Values quoted from earlier work, collected in paper PMC8228819, “Comparison of a Short Linear Antimicrobial Peptide with Its Disulfide-Cyclized and Cyclotide-Grafted Variants against Clinically Relevant Pathogens” (Microorganisms, 2021).
Entries after “also recorded” stand apart in the source; their conditions may differ.

Assays:
[1] = cited from earlier work
Description: These loops were previously found to be abl ... || Fractions f4 to f6 of [L6-optP7]Mco were initially tested against P. aeruginosa, E. coli, and MRSA (Table 1) using a rich media, Mueller–Hinton broth (MH), with all fractions displaying about the same moderate activity (within errors of the method). […] Calcium (Ca^2+) and magnesium (Mg^2+) often have the strongest effect on the antimicrobial activity of AMPs; their theoretical concentration in MH brot ...

red blood cells = conditions: cited from earlier work
Description: The 9mer AMP was grafted into loops 5 and 6 of MCoTI-II. These loops were previously found to be abl ...

[2] = cited from earlier work; remark: listed apart in the source
Description: We therefore followed two cyclization strategies: (i) a simple disulfide-cyclization by introduction of N- and C-terminal cysteines, and (ii) grafting onto an extremely stable scaffold with three disulfide bridges and backbone cyclization. The MCoTI-II cyclotide scaffold was used because of its inherent non-cytotoxic nature. […] The linear peptide was ...

## Momordica trypsin inhibitor II (cyclo(SGSDGGVCPKILKKCRRDSDCPGACICRGNGYCG); also: three cystine-knot disulfides, pairing not given here; UniProt P82409 1-34, looked up) [MCoTI-II]
[1]
  Antimicrobial activity: does not exhibit any antimicrobial activity; also recorded: does not exhibit any antimicrobial effects
Red blood cells
  Hemolytic activity towards red blood cells: does not show hemolytic activity
[2]
  Stability in human serum: high stability
